Measured values published in patent US8632772B2, “Methods of treating multiple myeloma using combination therapies based on anti-CS1 antibodies” (Dana-Farber Cancer Institute, priority 2006, dated 2014).

B1: HuLuc63: humanized recombinant monoclonal IgG1 antibody directed to human CS1; heavy chain variable region SEQ ID NO: 5, light chain variable region SEQ ID NO: 6 (antibody, listed as Homo saiens, listed as Homo sapiens, V domains shown)
VH: EVQLVESGGGLVQPGGSLRLSCAASGFDFSRYWMSWVRQAPGKGLEWIGEINPDSSTINYAPSLKDKFIISRDNAKNSLYLQMNSLRAEDTAVYYCARPDGNYWYFDVWGQGTLVTVSS
VL: DIQMTQSPSSLSASVGDRVTITCKASQDVGIAVAWYQQKPGKVPKLLIYWASTRHTGVPDRFSGSGSGTDFTLTISSLQPEDVATYYCQQYSSYPYTFGQGTKVEIK

Legend:
[1] = test system: patient MM cells; test: calcein-AM release ADCC assay, autologous patient MM cells with PBMC effector cells; format: cell-based, human
Method: (§1) ADCC was measured by calcein-AM release assay, with sensitivity similar to traditional Cr^51 assay, as described previously. After informed consent, peripheral blood mononuclear cells (PBMCs) including natural killer (NK) effector cells were isolated from leukopheresis products of normal donors or peripheral blood from MM patients. Increasing concentrations (0-10 μg/ml) of either HuLuc63 or human isotype control IgG1 MSL109 mAbs were added at effector:target (E:T) ratios of 20:1, in a final volume of 200 μl per well. In some experiments, PBMC effector cells were pretreated with lenalidomide for 3 days at 0.2 μM before HuLuc63-mediated ADCC assays were performed. After 4 h incubation, 100 μl culture supernatants were transferred to a Black ViewPlate™-96 plate and arbitrary fluorescent units (AFU) were read on a fluorometer (Wallac VICTOR2). This assay is valid only if (AFU mean maximum release−medium control release)/(AFU mean spontaneous release−medium control release)>7. Calculation of % specific lysis from triplicate experiments was done using the following equation: […]
HuLuc63-mediated lysis of patient MM cells by effector cells from the same patient was measured using an ADCC assay.
HuLuc63-mediated lysis of patient myeloma cells by PBMC effector cells from the same patient was measured using an ADCC assay. CD138-purified tumor cells from a patient with MM were incubated with autologous effector cells in the presence of serial dilutions of HuLuc63 (solid symbols) or isotype control IgG1 (open symbols). PBMC effector cells were pre-incubated for 3 days in the presence or absence of with lenalidomide […] (square symbols) or vehicle control (round symbols), followed by HuLuc63-mediated ADCC. […] Similarly, pretreatment of effector cells with lenalidomide enhanced HuLuc63-induced lysis of myeloma cell lines (FIGS. 3A and 3B).

[2] = test system: myeloma cell lines; test: calcein-AM release ADCC assay, myeloma cell lines, effector cells pretreated with lenalidomide; format: cell-based, human
Method: as §1
HuLuc63-mediated lysis of patient myeloma cells by PBMC effector cells from the same patient was measured using an ADCC assay. […]

[3] = test system: OPM2 myeloma cells; test: 51Cr release ADCC assay, OPM2 cells with NK cells from healthy donors; format: cell-based, human; settings: bortezomib 10 nM, 18 hrs; NK effector cells from healthy donors
Method: OPM2 myeloma cells were harvested at mid-log phase, suspended at a density of 1.0×10^6 cells/mL in complete media (RPMI with 10% FBS) and treated overnight with or without Velcade (10 nM). Cells were collected, washed, re-suspended at a density of 20×10^6 viable cells/mL, and labeled for one hour with […] Na2[^51Cr]O4 per 10^6 cells. ^51Cr-Labeled cells were washed then added to a 96-well V-bottomed polystyrene plate at a cell density of 15,000 cells per 75 μL RPMI supplemented with 10% heat-inactivated FBS. HuLuc63 and a human IgG1 isotype control antibody MSL-109 were added to target cells for a final antibody concentration ranging from 0.001 to 10 μg/mL. NK cells were enriched from the whole blood of healthy donors using the RosetteSep human NK cell enrichment cocktail (Stem Cell Technologies). The enriched NK cells were added to Velcade treated or untreated OPM2 cells at a ratio of 10:1. After a 4-hour incubation at 37° C., cells were centrifuged and the supernatants measured for released ^51Cr. Maximum release was determined from target cells lysed with […] Digitonin. Antibody independent cellular cytotoxicity (AICC) was determined using target cells, plus media, plus NK cells, while spontaneous lysis was determined using ^51Cr-labelled cells plus media without NK effectors. % Cytotoxicity was calculated as ((sample−AICC)/(Maximum−AICC)*100. […]

[4] = test system: CS1; test: CS1 protein expression on OPM2 cell line (flow cytometry); format: cell-based, human; settings: OPM2 multiple myeloma cell line
Method: The effect of HuLuc63 and bortezomib treatment on expression of CS1 in MM cell lines and mouse xenograft tumors was examined by flow cytometry and immunohistochemistry respectively.
The combination of HuLuc63 with bortezomib was then tested for anti-myeloma activity in vitro using ADCC assays. […] OPM2 cells were pretreated with vehicle control (square symbols) or bortezomib (10 nM; round symbols) for 18 hrs and were then subjected to HuLuc63 mediated ADCC using human NK cells from healthy donors. HuLuc63 (closed symbols) and isotype control antibody (open symbols) were used at doses ranging from 0.001-10 μg/ml.

[5] = test system: OPM2 tumor; test: OPM2 xenograft mouse model, second experiment (clinic-like bortezomib schedule); format: in vivo, mice; settings: HuLuc63 1 mg/kg ip twice a week, 10 doses; bortezomib 1 mg/kg ip twice weekly weeks 1, 2, 4, 5
Method: In a second experiment, HuLuc63 was combined with bortezomib in vivo, using a different dose and dosing schedule for bortezomib, while keeping the original HuLuc63 dose and dosing schedule. OPM2 cells were inoculated into the flanks of SCID mice. When tumors reached an average size of about 100 mm3, animals were randomized into 4 groups of 15 mice each and were treated with 1 mg/kg of antibody administered intraperitoneally twice a week for a total of 10 doses. Bortezomib was administered intraperitoneally at a dose of 1 mg/kg twice for weeks 1 and 2, no treatment for week 3, and 1 mg/kg twice for weeks 4 and 5 for a total of 8 doses. The intent for this dosing schedule was to more closely mimic the dosing schedule of bortezomib in the clinic, where each treatment cycle consists of 2 weeks of dosing, with one week off. Tumor growth was monitored for a period of 1-2 months.

[6] = test system: MHC class I; settings: bortezomib treatment of myeloma cells; cited from earlier work
[7] = test system: OPM2 tumor; test: OPM2 xenograft mouse model, first experiment; format: in vivo, mice; settings: HuLuc63 1 mg/kg ip twice weekly, 6 doses; bortezomib 0.75 mg/kg ip twice a week
Method: Six- to eight-week old female IcrTac:ICR-Prkdc^scid mice obtained from Taconic Farms (Germantown, N.Y.) were inoculated with 1×10^7 OPM2 (American Type Culture Collection) cells into the lower right flank. Caliper measurements were performed twice weekly to calculate tumor volume using the following formula: L×W×H/2, where L (length) is the longest side of the tumor in the plane of the animal's back, W (width) is the longest measurement perpendicular to the length and in the same plane and H (height) is taken at the highest point perpendicular to the back of the animal. When tumors reached an average size of about 100 mm^3, animals were randomized into 3 groups of 8-10 mice each and were treated with 1 mg/kg of antibody administered intraperitoneally twice a week for a total of 6 doses. […] Tumor growth was monitored for a period of 1-2 months.

[8] = test system: myeloma tumor; settings: myeloma mouse tumor model; cited from earlier work
[9] = test system: myeloma cells; settings: cited from earlier work

Molecule | effect of pre-incubation of PBMC effector cells on HuLuc63-mediated ADCC activity, autologous patient sample ([1]; lenalidomide (0.2 µM) for 3 days before ADCC) | effect of pretreatment of effector cells on HuLuc63-induced lysis of myeloma cell lines [2] | effect of pre-treatment of OPM2 cells on HuLuc63-mediated ADCC [3] | change in CS1 expression pre- or post-treatment [4] | anti-tumor activity [5] | cell-surface expression of MHC class I on myeloma cells [6] | autologous myeloma cell lysis (ADCC) ([1]; patient MM cells with effector cells from the same patient, 0-10 μg/ml, E:T 20:1) | autologous tumor cell lysis in patients with MM resistant or refractory to bortezomib and/or 17-AAG ([1]; resistant or refractory patient tumor cells, autologous effector cells) | anti-tumor activity [7] | reduction of tumor mass [8] | lysis of myeloma cells via ADCC [9]
Nc1cccc2c1CN(C1CCC(=O)NC1=O)C2=O (stereo not shown) [lenalidomide, reference compound] | significantly increased the ADCC activity | enhanced |  |  |  |  |  |  |  |  | 
CC(C)C[C@H](NC(=O)[C@H](Cc1ccccc1)NC(=O)c1cnccn1)B(O)O [bortezomib, reference compound] |  |  | significantly enhanced | no significant change | significant anti-tumor activity | down-modulation |  |  |  |  | 
B1 |  |  |  | no significant change | significant anti-tumor activity |  | induced significant autologous myeloma cell lysis | demonstrated | significant anti-tumor activity | more than 50% | effectively mediates lysis
